Consider 17 molecules from patent publication US20250368744A1 (CONCEPT TO MEDICINE BIOTECH, published 2025).

Substitutions are numbered along the chain they refer to.

B1: Hu195H8D10-7 (antibody, V domains shown)
VH: EVQLVESGGGLVQPGGSLRLSCAASGFNFNTYVMNWVRQAPGKGLEWVARIRTKSNNYATYYADSVKDRFTISRDDSKNSLYLQMNSLKTEDTAVYYCVSGTITRLGGGLDYWGQGTLVTVSS
VL: DIVMTQSPLSLPVTPGEPASISCRSSKRLLHSNGNTYLYWYLQKPGQSPQLLIYRMSNLASGVPDRFSGSGSGTAFTLKISRVEAEDVGVYYCMQHLEYPFTFGGGTKLEIK
notes: humanized
B2: Hu195H8D10-5 (antibody, V domains shown)
VH: B1 VH
VL: B1 VL with A75D
notes: humanized
B3: Hu195H8D10-15 (antibody, V domains shown)
VH: B1 VH with K78E, N79S, V95M
VL: B1 VL
notes: humanized
B4: Hu195H8D10-10 (antibody, V domains shown)
VH: B1 VH with N79S
VL: B1 VL with Y41F, A75D
notes: humanized
B5: Hu195H8D10-3 (antibody, V domains shown)
VH: B1 VH with A49G, V99A, S100R
VL: B1 VL
notes: humanized
B6: Hu195H8D10-16 (antibody, V domains shown)
VH: B1 VH with K78E, N79S, V95M
VL: B1 VL with Y41F
notes: humanized
B7: Hu195H8D10-8 (antibody, V domains shown)
VH: B1 VH
VL: B1 VL with Y41F
notes: humanized
B8: Hu195H8D10-6 (antibody, V domains shown)
VH: B1 VH
VL: B1 VL with Y41F, A75D
notes: humanized
B9: Hu200C9B9-7 (antibody, V domains shown)
VH: B1 VH with N28S, Y61F, A63V, G108A
VL: B1 VL with R28S
notes: humanized
B10: Hu200C9B9-3 (antibody, V domains shown)
VH: B1 VH with N28S, A49G, Y61F, A63V, V99A, S100R, G108A
VL: B1 VL with R28S
notes: humanized
B11: Hu195H8D10-11 (antibody, V domains shown)
VH: B1 VH with N79S
VL: B1 VL
notes: humanized
B12: Hu200C9B9-16 (antibody, V domains shown)
VH: B1 VH with N28S, E46N, Y61F, A63V, K78E, G108A
VL: B1 VL with R28S, Y41F
notes: humanized
B13: Hu200C9B9-6 (antibody, V domains shown)
VH: B1 VH with N28S, Y61F, A63V, G108A
VL: B1 VL with R28S, Y41F, A75D
notes: humanized
B14: Hu195H8D10-4 (antibody, V domains shown)
VH: B1 VH with A49G, V99A, S100R
VL: B1 VL with Y41F
notes: humanized
B15: Hu200C9B9-4 (antibody, V domains shown)
VH: B1 VH with N28S, A49G, Y61F, A63V, V99A, S100R, G108A
VL: B1 VL with R28S, Y41F
notes: humanized
B16: Hu200C9B9-13 (antibody, V domains shown)
VH: B1 VH with N28S, E46N, Y61F, A63V, K78E, G108A
VL: B1 VL with R28S, A75D
notes: humanized
B17: Hu200C9B9-9 (antibody, V domains shown)
VH: B1 VH with N28S, E46N, Y61F, A63V, G108A
VL: B1 VL with R28S, A75D
notes: humanized

The target in the assay is T1, human C-C motif chemokine receptor 8 (CCR8) (human, UniProt P51685 1-355).
T1 construct: whole, on cells; also called human CCR8; hCCR8
T1 sequence (P51685 whole entry): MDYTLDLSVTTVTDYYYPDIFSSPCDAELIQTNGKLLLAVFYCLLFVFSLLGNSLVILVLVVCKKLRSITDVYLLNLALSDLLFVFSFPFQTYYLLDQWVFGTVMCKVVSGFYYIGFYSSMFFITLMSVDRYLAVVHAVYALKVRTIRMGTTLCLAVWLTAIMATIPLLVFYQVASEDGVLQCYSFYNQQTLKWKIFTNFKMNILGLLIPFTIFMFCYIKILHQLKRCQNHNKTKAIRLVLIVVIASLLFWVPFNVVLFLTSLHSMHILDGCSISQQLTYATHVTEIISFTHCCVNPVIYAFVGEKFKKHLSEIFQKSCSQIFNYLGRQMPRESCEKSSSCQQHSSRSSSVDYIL
Briefly: FACS (MFI-PE) on CHO-K1 hCCR8 cells, bars at five doses. Here is the method: PE Goat anti-Human IgG Fc Secondary Antibody (eBioscience™, Invitrogen) was added to each well and incubated at 4° C. for 30 mins. Samples were washed twice with FACS buffer. The mean florescence intensity (MFI) of PE was evaluated by MACSQuant Analyzer 16.
On to B1, for which the binding result is given as “binds”.

As to B2, the binding result is “binds”.

As to B3, the binding result is given as “binds”.

As for B4, the binding result is given as “binds”.

On to B5, for which the binding result is reported as “binds”.

For B6, the binding result is given as “binds”.

As for B7, the binding result was “binds”.

For the molecule B8, the binding result is “binds”.

Take B9: the binding result was “binds”.

Take B10: the binding result is on record as “binds”.

Turning to B11, the binding result is recorded as “binds”.

As to B12, the binding result was “binds”.

Regarding B13, the binding result was “binds”.

On to B14, for which the binding result was “binds”.

With B15, the binding result is listed as “binds”.

In the case of B16, the binding result was “binds”.

With B17, the binding result is “binds”.
